Results: article PMC12036983

Target: hEAAT3-X (Hg2+-crosslinked Cys-mini K269C/W441C hEAAT3g, human excitatory amino acid transporter 3) (human) (UniProt P43005)
Experiment: cryo-EM structure; hEAAT3-X at ~5 mg/mL in 20 mM HEPES-Tris pH 7.4, 200 mM NaCl, 0.01% GDN with 10 mM L-Asp, D-Asp, R-2HG or L-Cys; maps refined with C3 symmetry

“hEAAT3-X (Hg2+-crosslinked Cys-mini K269C/W441C hEAAT3g, human excitatory amino acid transporter 3) (from UniProt P43005 1-524)” gave a stoichiometry N of 3.
